Assay results: patent US20240101645A1 (HENRY M JACKSON FOUNDATION FOR THE ADVANCEMENT OF MILITARY …, published 2024)

Molecular target: SARS-CoV-1 S on pseudovirions (Sino 1-11, 28 amino acid C-terminal deletion) (SARS-CoV-1, UniProt P59594 14-1227)
Assay: cell-based or functional assay

B1: COV_2063 (antibody, V domains shown)
VH: EVQLVESGGGVVQPGRSLRLSCAASGFTFSSYGMHWVRQAPGKGLEWVAVIWYDGSNKYYADSVKGRFTISRDNSKNTLYLQMNSLRAEDTAVYYCARGPLGSNYFNYDAFDIWGQGTMVTVSS
VL: DVVMTQSPLSLPVTLGQPASISCRSSQSLEYSDGNTYLNWFQQRPGQSPRRLIYKVSKRDSGVPDRFSGSGSGSDFTLKISRVEAEDVGVYYCMQGTHWPLTFGGGTKVEIK
B1 was tested, and the “IC50, SARS-CoV-1 pseudotyped neutralization” value was 0.095 µg/mL.
